Data as given in patent US20160367497A1, “METHODS AND COMPOSITIONS FOR TREATING NEUROPATHIES” (Washington University, priority 2007, published 2016).

Key:
[1] = test system: DRG neuronal explant; test: vincristine-induced axonal degeneration in DRG neuronal explants; type: cell-based, mouse; conditions: 0.5 μM vincristine for up to 9 d; lentiviral expression
Description: (§1) To identify the mechanism of delayed axonal degeneration mediated by the Wlds protein, we employed an in-vitro Wallerian degeneration model. Primary DRG explant neurons were infected with lentivirus expressing the appropriate proteins, and axons were injured by either removal of the neuronal cell body (transection) or growth in vincristine (toxic).
Quantitative analysis of axonal degeneration was performed as previously described (Zhai, et al., Neuron 39:217-25, 2003). Briefly, the cultures were examined using phase contrast microscopy at the indicated times. Axons with a fragmented, non-refractile appearance were designated as “degenerated.” At each time point, at least 200 singly distinguishable axons were blindly scored from several randomly taken images of each culture. Each condition was tested in triplicate explants in each experiment. Results were obtained from 2-4 independent experiments for each condition. Statistical analysis was performed by Student's T test. For calculations of neurite-covered area, digitally captured images from quadruplicate samples of two independent experiments were analyzed using analysis 3.1 software (Soft Imaging System, Lakewood, Colo.). […]

[2] = test system: DRG neuronal explant cultures; test: in vitro Wallerian degeneration assay, DRG explant neurite transection; type: cell-based, mouse; conditions: lentivirus-mediated expression in DRG neurons
Description: as §1
Mouse DRG explants from E12.5 embryos were cultured in the presence of 1 nM nerve growth factor. Non-neuronal cells were removed from the cultures by adding 5-fluorouracil to the culture medium. Transection of neurites was performed at 10-20 DIV using an 18-gauge needle to remove the neuronal cell bodies. […]
Quantitative analysis of axonal degeneration was performed as previously described (Zhai, et al., Neuron 39:217-25, 2003). […] Axons with a fragmented, non-refractile appearance were designated as “degenerated.” At each time point, at least 200 singly distinguishable axons were blindly scored from several randomly taken images of each culture. […] For calculations of neurite-covered area, digitally captured images from quadruplicate samples of two independent experiments were analyzed using analysis 3.1 software (Soft Imaging System, Lakewood, Colo.).
Cell culture, in vitro axotomy, and quantification of axonal degeneration. […] Quantitative analysis of neurite degeneration was performed.

B1: NMNAT1: nicotinamide mononucleotide adenylyltransferase1, lentivirus expressed (protein, UniProt Q9EPA7 1-285, looked up)
Nicotinamide/nicotinic acid …: MDSSKKTEVVLLACGSFNPITNMHLRLFELAKDYMHATGKYSVIKGIISPVGDAYKKKGLIPAHHRIIMAELATKNSHWVEVDTWESLQKEWVETVKVLRYHQEKLATGSCSYPQSSPALEKPGRKRKWADQKQDSSPQKPQEPKPTGVPKVKLLCGADLLESFSVPNLWKMEDITQIVANFGLICITRAGSDAQKFIYESDVLWRHQSNIHLVNEWITNDISSTKIRRALRRGQSIRYLVPDLVQEYIEKHELYNTESEGRNAGVTLAPLQRNAAEAKHNHSTL
- axon length and refractility [1]: maintained their original length and refractility

B2: NmPRT: nicotinamide phosphoribosyltransferase (protein, UniProt P43490 1-491, looked up)
Nicotinamide …: MNPAAEAEFNILLATDSYKVTHYKQYPPNTSKVYSYFECREKKTENSKLRKVKYEETVFYGLQYILNKYLKGKVVTKEKIQEAKDVYKEHFQDDVFNEKGWNYILEKYDGHLPIEIKAVPEGFVIPRGNVLFTVENTDPECYWLTNWIETILVQSWYPITVATNSREQKKILAKYLLETSGNLDGLEYKLHDFGYRGVSSQETAGIGASAHLVNFKGTDTVAGLALIKKYYGTKDPVPGYSVPAAEHSTITAWGKDHEKDAFEHIVTQFSSVPVSVVSDSYDIYNACEKIWGEDLRHLIVSRSTQAPLIIRPDSGNPLDTVLKVLEILGKKFPVTENSKGYKLLPPYLRVIQGDGVDINTLQEIVEGMKQKMWSIENIAFGSGGGLLQKLTRDLLNCSFKCSYVVTNGLGINVFKDPVADPNKRSKKGRLSLHRTPAGNFVTLEEGKGDLEEYGQDLLHTVFKNGKVTKSYSFDEIRKNAQLNIELEAAHH
- axonal/neurite degeneration after transection [2]: shows axonal protection
